Results published in publication PMC12212125, “Constitutively active Arabidopsis cryptochrome two alleles identified using yeast selection and deep mutational scanning” (The Journal of Biological Chemistry, 2025).
Values belong to the molecule of their own block, whether it stands above or below them.

What was measured:
[1] = biological target: T1, pCRY-PHR (plant cryptochrome pCRY, PHR domain) (Chlamydomonas reinhardtii, UniProt Q42696, D393S); test: UV-vis absorbance and time-resolved UV-vis difference spectroscopy of purified protein; assay type: binding; conditions: 50 mM phosphate pH 7.8, 100 mM NaCl, 3 mM ATP, 1% glycerol, 10 °C, with or without 2 mM DTT; co-purified chromophore; time-resolved spectra at 13 °C without DTT
T1 construct: gene CPH1; PHR domain, amino acids 1-504, N-terminal His6 and C-terminal StrepII tags (printed for D393S), E. coli BL21(DE3), pET-28a(+); theoretical mass 59 kDa, wild type monomeric in the dark

[2] = biological target: pCRY-PHR D393S (amino acids 1-504) (Chlamydomonas reinhardtii); test: SEC; Superdex 200 Increase 10/300 GL, under light exclusion at 4 °C, 50 mM Tris pH 7.8, 100 mM NaCl, 1 mM ATP, 1 mM MgCl2; samples at OD450 = 1; apparent masses from calibration
[3] = biological target: Region II mutations (V367M, K368E, Y399S, S401F, P405L) placed in the CRY2PHR background; test: two-hybrid; BD-CRY2PHR (1-498) variants and AD-CIB1, AH109 x Y187, beta-galactosidase reporter (Miller Units, ONPG), dark for 2 h
[4] = biological target: T2, CRY2PHR (residues 1-498 of CRY2, lacking the CCE), Gal4BD fusion, wild type (Arabidopsis thaliana, UniProt Q96524 1-498); test: two-hybrid; BD-CRY2PHR (1-498) variants and AD-CIB1, AH109 x Y187, beta-galactosidase reporter (Miller Units, ONPG), light for 2 h; conditions: partners not purified
T2 construct: Cryptochrome 2 (CRY2), Arabidopsis thaliana, photolyase homology region, residues 1-498; also called BD-CRY2PHR; pDBTrp-CRY2PHR; source: yeast two-hybrid fusion (AH109 x Y187)
T2 sequence (Q96524 1-498): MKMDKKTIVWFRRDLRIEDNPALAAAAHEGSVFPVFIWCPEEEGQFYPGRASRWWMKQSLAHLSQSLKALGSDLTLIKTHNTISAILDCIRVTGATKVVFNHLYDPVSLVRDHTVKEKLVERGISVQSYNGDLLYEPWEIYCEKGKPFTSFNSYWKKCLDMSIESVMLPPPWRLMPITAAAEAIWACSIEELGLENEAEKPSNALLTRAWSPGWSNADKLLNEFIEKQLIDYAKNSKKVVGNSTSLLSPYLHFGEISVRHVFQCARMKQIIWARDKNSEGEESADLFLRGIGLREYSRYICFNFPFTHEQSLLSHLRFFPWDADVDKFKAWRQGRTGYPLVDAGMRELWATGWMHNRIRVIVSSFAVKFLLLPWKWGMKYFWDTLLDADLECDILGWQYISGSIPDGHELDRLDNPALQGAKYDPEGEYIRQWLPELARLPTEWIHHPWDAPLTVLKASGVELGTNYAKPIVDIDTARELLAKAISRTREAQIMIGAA

T1 sequence (Q42696 entry or part of it D393S): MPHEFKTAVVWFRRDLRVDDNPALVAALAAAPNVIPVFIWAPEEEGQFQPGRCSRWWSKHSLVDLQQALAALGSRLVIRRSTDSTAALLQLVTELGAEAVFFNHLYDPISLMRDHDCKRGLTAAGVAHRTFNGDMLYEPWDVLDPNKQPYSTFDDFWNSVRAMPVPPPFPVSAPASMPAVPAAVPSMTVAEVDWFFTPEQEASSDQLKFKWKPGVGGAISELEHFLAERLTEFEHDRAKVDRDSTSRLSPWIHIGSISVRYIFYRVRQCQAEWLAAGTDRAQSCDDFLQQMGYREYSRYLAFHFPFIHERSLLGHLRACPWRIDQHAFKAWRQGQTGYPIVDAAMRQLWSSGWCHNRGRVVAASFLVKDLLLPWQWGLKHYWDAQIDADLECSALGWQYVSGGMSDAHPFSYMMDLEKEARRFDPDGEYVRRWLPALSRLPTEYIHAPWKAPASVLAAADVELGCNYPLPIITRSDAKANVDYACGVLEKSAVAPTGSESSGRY

Molecule: Cc1cc2nc3c(=O)[nH]c(=O)nc-3n(C[C@H](O)[C@H](O)[C@H](O)COP(=O)(O)OP(=O)(O)OC[C@H]3O[C@@H](n4cnc5c(N)ncnc54)[C@H](O)[C@@H]3O)c2cc1C [FAD]
UV-vis absorbance and time-resolved UV-vis difference spectroscopy of purified p [1]: The D393S mutant forms homomers in the dark with oxidized FAD bound

B2: CRYPTOCHROME-INTERACTING BASIC-HELIX-LOOP-HELIX 1 (CIB1), Gal4AD fusion (natural protein, Arabidopsis thaliana, UniProt Q8GY61 1-335, looked up)
chain: MNGAIGGDLLLNFPDMSVLERQRAHLKYLNPTFDSPLAGFFADSSMITGGEMDSYLSTAGLNLPMMYGETTVEGDSRLSISPETTLGTGNFKKRKFDTETKDCNEKKKKMTMNRDDLVEEGEEEKSKITEQNNGSTKSIKKMKHKAKKEENNFSNDSSKVTKELEKTDYIHVRARRGQATDSHSIAERVRREKISERMKFLQDLVPGCDKITGKAGMLDEIINYVQSLQRQIEFLSMKLAIVNPRPDFDMDDIFAKEVASTPMTVVPSPEMVLSGYSHEMVHSGYSSEMVNSGYLHVNPMQQVNTSSDPLSCFNNGEAPSMWDSHVQNLYGNLGV
notes: CIB1, transcription factor, Arabidopsis thaliana; also called GalAD-CIB1; Gal4AD-CIB1; source: yeast two-hybrid fusion (MaV203; Y187, mated to AH109)
fold increase of interaction (beta-galactosidase reporter) in light over dark [4]: 4 fold

The remaining lines, values ahead:

stoichiometry N [2]: 2
Molecule: pCRY-PHR D393S (amino acids 1-504) (domain or fragment)

fold higher basal (dark) interaction than wild-type CRY2PHR (beta-galactosidase reporter) [3]: 4 to 7 fold
B1: CRYPTOCHROME-… BASIC-HELIX-LOOP-HELIX 1 (CIB1), Gal4AD fusion (natural protein)
chain: MNGAIGGDLLLNFPDMSVLERQRAHLKYLNPTFDSPLAGFFADSSMITGGEMDSYLSTAGLNLPMMYGETTVEGDSRLSISPETTLGTGNFKKRKFDTETKDCNEKKKKMTMNRDDLVEEGEEEKSKITEQNNGSTKSIKKMKHKAKKEENNFSNDSSKVTKELEKTDYIHVRARRGQATDSHSIAERVRREKISERMKFLQDLVPGCDKITGKAGMLDEIINYVQSLQRQIEFLSMKLAIVNPRPDFDMDDIFAKEVASTPMTVVPSPEMVLSGYSHEMVHSGYSSEMVNSGYLHVNPMQQVNTSSDPLSCFNNGEAPSMWDSHVQNLYGNLGV
